Results published in patent publication US20110319287A1, “MODULATOR ASSAY” (ADDEX PHARMA S.A., priority 2009, published 2011).

How the values were obtained:
Assay in all cases: cell-based or functional assay
[1] = molecular target: Recombinant Human TL1A/TNFSF15 (R&D Systems, Cat N° 1319-TL) (human) (UniProt O95150)
[2] = molecular target: DR3 receptor expressed in HeLa TRADD DR3 cells (Homo sapiens (Human)) (UniProt Q93038)
[3] = molecular target: recombinant human TNF-α (Peprotech, Cat N° 300-01A) (human) (UniProt P01375)
recombinant human TNF-α (Peprotech, Cat N° 300-01A) (human), sequence (P01375 77-233 limits assumed): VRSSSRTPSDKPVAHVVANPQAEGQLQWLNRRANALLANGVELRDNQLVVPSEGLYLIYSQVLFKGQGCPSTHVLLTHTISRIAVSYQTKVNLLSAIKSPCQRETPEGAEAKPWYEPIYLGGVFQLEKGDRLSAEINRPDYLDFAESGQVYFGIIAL

Recombinant Human TL1A/TNFSF15 (R&D Systems, Cat N° 1319-TL) (human), sequence (O95150 72-251 limits assumed): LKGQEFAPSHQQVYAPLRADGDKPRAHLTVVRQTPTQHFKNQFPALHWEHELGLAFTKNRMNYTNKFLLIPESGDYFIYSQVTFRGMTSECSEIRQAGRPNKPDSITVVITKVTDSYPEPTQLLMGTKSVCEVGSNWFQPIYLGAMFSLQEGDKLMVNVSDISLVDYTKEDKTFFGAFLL
DR3 receptor expressed in HeLa TRADD DR3 cells (Homo sapiens (Human)), sequence (Q93038 other isoform, or with tags, fused parts or gaps, form in doubt): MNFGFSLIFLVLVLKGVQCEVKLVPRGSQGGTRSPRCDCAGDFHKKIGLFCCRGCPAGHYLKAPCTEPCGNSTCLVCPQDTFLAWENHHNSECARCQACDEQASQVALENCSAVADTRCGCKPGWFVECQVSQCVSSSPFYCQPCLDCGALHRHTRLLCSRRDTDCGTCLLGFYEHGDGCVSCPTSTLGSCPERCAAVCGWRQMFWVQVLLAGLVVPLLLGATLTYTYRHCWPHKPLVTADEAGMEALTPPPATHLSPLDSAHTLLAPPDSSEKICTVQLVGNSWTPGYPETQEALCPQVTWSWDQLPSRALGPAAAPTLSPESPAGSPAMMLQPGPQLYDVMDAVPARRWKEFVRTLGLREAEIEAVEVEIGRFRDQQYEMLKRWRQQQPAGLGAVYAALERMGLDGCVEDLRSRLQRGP

“Recombinant Human DcR3/TNFRSF6B/Fc Chimera, CF (R&D Systems, Cat N° 142-DC) (from UniProt O95407 30-300) (Fc fusion)” was tested, and the IC50 of inhibition of TL1A-induced TRADD-EYFP relocalisation in HeLa TRADD DR3 cells (300 ng/ml TL1A, FIG. 17) [1] was 1.41 µg/mL.
Work on “Recombinant Human TL1A/TNFSF15 (R&D Systems, Cat N° 1319-TL) (from UniProt O95150 72-251) (ligand)” yielded an EC50 of TL1A-induced relocalisation of TRADD-EYFP in HeLa TRADD DR3 cells (FIG. 17) [2] of 0.0043 µg/mL.
Substance “etanercept (Enbrel®, from Amgen, Inc.) (Fc fusion)” has an IC50 of inhibition of TNF-induced TRADD-EYFP relocalisation in HeLa TRADD DR3 cells (100 ng/ml TNF, FIG. 19) [3] of 0.0538 µg/mL and an IC50 of inhibition of TNF-induced relocalisation of TRADD-EYFP (TNF dose 300 ng/ml, FIG. 9) [3] of 2740 nM.
